Measured values reported in PMC9887734, “Meeting abstracts from the 10th International Conference on cGMP: Generators, Effectors and Therapeutic Implications” (Journal of Translational Medicine, 2023).

Experiments:
[1] = biological target: the molecule itself; assay: cryo-EM structure; human cone photoreceptor CNG channel CNGA3/CNGB3 in the apo state
[2] = biological target: T1, CNGB3 subunit of the human cone photoreceptor CNG channel (human, UniProt Q9NQW8 1-809); assay: as above; details: both partners purified
T1 construct: CNGB3, human cone photoreceptor cyclic nucleotide-gated channel subunit; One copy stands in the CNGA3/CNGB3 channel
T1 sequence (looked up): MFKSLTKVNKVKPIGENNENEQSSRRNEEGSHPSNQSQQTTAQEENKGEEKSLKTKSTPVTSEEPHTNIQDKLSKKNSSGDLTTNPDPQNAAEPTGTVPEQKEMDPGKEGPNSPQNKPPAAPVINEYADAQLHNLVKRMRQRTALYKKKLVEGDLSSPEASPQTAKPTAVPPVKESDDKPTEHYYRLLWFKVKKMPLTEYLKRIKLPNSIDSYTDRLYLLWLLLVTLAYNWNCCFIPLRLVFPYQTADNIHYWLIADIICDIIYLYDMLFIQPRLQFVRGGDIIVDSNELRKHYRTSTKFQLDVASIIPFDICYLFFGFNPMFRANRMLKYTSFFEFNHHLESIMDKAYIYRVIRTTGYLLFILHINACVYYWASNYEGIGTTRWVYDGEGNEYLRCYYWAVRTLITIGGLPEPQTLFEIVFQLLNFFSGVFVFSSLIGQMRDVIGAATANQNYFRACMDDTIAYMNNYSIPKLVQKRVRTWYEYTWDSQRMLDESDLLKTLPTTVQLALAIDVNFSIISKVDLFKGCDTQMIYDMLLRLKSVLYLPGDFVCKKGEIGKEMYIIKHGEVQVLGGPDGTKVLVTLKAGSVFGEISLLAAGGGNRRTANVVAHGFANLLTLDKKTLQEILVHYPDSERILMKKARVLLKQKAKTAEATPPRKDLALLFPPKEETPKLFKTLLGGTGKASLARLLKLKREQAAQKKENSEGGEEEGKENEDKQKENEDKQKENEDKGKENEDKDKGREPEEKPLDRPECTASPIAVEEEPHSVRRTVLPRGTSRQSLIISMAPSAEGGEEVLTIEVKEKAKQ

stoichiometry N [2]: 3 CNGA3 per CNGB3
B1: CNGA3 subunit of the human cone photoreceptor CNG channel (natural protein, UniProt Q16281 1-694, looked up)
chain: MAKINTQYSHPSRTHLKVKTSDRDLNRAENGLSRAHSSSEETSSVLQPGIAMETRGLADSGQGSFTGQGIARLSRLIFLLRRWAARHVHHQDQGPDSFPDRFRGAELKEVSSQESNAQANVGSQEPADRGRSAWPLAKCNTNTSNNTEEEKKTKKKDAIVVDPSSNLYYRWLTAIALPVFYNWYLLICRACFDELQSEYLMLWLVLDYSADVLYVLDVLVRARTGFLEQGLMVSDTNRLWQHYKTTTQFKLDVLSLVPTDLAYLKVGTNYPEVRFNRLLKFSRLFEFFDRTETRTNYPNMFRIGNLVLYILIIIHWNACIYFAISKFIGFGTDSWVYPNISIPEHGRLSRKYIYSLYWSTLTLTTIGETPPPVKDEEYLFVVVDFLVGVLIFATIVGNVGSMISNMNASRAEFQAKIDSIKQYMQFRKVTKDLETRVIRWFDYLWANKKTVDEKEVLKSLPDKLKAEIAINVHLDTLKKVRIFQDCEAGLLVELVLKLRPTVFSPGDYICKKGDIGKEMYIINEGKLAVVADDGVTQFVVLSDGSYFGEISILNIKGSKSGNRRTANIRSIGYSDLFCLSKDDLMEALTEYPEAKKALEEKGRQILMKDNLIDEELARAGADPKDLEEKVEQLGSSLDTLQTRFARLLAEYNATQMKMKQRLSQLESQVKGGGDKPLADGEVPGDATKTEDKQQ
notes: CNGA3, human cone photoreceptor cyclic nucleotide-gated channel subunit; Three copies stand in the CNGA3/CNGB3 channel whose cryo-EM structure (apo state) is reported
binding result [1]: binds
